The test deals with small intestinal organoids. Description: Ex vivo organoid culture of small intestine crypts. The test is classed as cell-based, mouse. As to the method: Isolation of intestinal epithelial crypts was performed as previously described (26). Briefly, after harvesting small intestines, the organs were opened longitudinally and washed. Small intestine was incubated in 10 mM ethylenediamine-tetraacetatic acid (EDTA) for 25 min (4° C.) to dissociate the crypts. The supernatant containing crypts was collected.
250 crypts per well were suspended in growth factor reduced Matrigel (Corning) (33% ENR-medium; 66% growth factor reduced Matrigel) at 4° C. Then, they were plated in delta-surface Nunc 24-well plates in 30 μL drops, each containing approximately 250 crypts. […]
To determine the effect of 3pRNA/interferon stimulatory DNA/rmIFN-β on organoid size and morphology, bright-field microscopy images were taken using a Zeiss Axiovision Observer microscope with a 5× objective lens after 5 or 7 days in culture. 2D area and perimeter were analyzed using border perimeter tracing of organoids found in four representative fields of each well using Image J software. For assessment of gene expression by quantitative (q) PCR, organoids were subjected to RNA extraction 24 hours after culture using Trizol reagent (Invitrogen) according to manufacturer's protocol. Isolated RNA was reverse-transcribed using the Quantitect Reverse Transcription Kit (Qiagen). […]

B1: recombinant IFN-β: recombinant murine (rm) IFN-β (20 U/ml; PBL (12400-1)) (protein, UniProt P01575 22-182, looked up)
Interferon beta: INYKQLQLQERTNIRKCQELLEQLNGKINLTYRADFKIPMEMTEKMQKSYTAFAIQEMLQNVFLVFRNNFSSTGWNETIVVRLLDELHQQTVFLKTVLEEKQEERLTWEMSSTALHLKSYYWRVQRYLKLMKYNSYAWMVVRAEIFRNFLIIRRLTRNFQN
As for B1, the number of organoids entry (7 days in culture, IFN-β 20 U/ml or α-IFNaR1 Ab 10 ug/ml) is “Neither recombinant IFN-β nor IFNAR blockade could influence”. Besides, the organoid size entry (recombinant murine IFN-β 20 U/ml, 5 or 7 days in culture) is recorded as “increased organoid size”.

These data come from patent US20200108091A1, “GUT-PROTECTIVE EFFECT OF RIG-1/MAVS AND STING ACTIVATION” (MEMORIAL SLOAN-KETTERING CANCER CENTER, priority 2017, published 2020).
